The values below come from the Human Domainome abundance scans (Beltran et al. 2025).

± gives the uncertainty stated by the source.

A short description of this data set: abundance fitness (aPCA) (normalised: wild type 0, dead -1); higher = more abundant; growth selection in yeast, the domain comes from the species named. Particulars: Homo sapiens.
“Lipoamide acyltransferase component of branched-chain alpha-keto acid dehydrogenase complex, mitochondrial T171C, P11182” registered an abundance fitness of -0.282 ± 0.063.
The value for “Lipoamide acyltransferase component of branched-chain alpha-keto acid dehydrogenase complex, mitochondrial T171D, P11182” was -0.035 ± 0.073; that for “Lipoamide acyltransferase component of branched-chain alpha-keto acid dehydrogenase complex, mitochondrial T171E, P11182” was -0.268 ± 0.058.
The value for “Lipoamide acyltransferase component of branched-chain alpha-keto acid dehydrogenase complex, mitochondrial T171F, P11182” was -0.028 ± 0.12; that for “Lipoamide acyltransferase component of branched-chain alpha-keto acid dehydrogenase complex, mitochondrial T171K, P11182” was -0.061 ± 0.069; that for “Lipoamide acyltransferase component of branched-chain alpha-keto acid dehydrogenase complex, mitochondrial T171L, P11182” was -0.632 ± 0.17.
The value for “Lipoamide acyltransferase component of branched-chain alpha-keto acid dehydrogenase complex, mitochondrial T171M, P11182” was 0.031 ± 0.062; that for “Lipoamide acyltransferase component of branched-chain alpha-keto acid dehydrogenase complex, mitochondrial T171N, P11182” was -0.012 ± 0.058; that for “Lipoamide acyltransferase component of branched-chain alpha-keto acid dehydrogenase complex, mitochondrial T171P, P11182” was -0.422 ± 0.11.
Substance “Lipoamide acyltransferase component of branched-chain alpha-keto acid dehydrogenase complex, mitochondrial T171Q, P11182” yielded an abundance fitness of -0.391 ± 0.09.
Consider “Lipoamide acyltransferase component of branched-chain alpha-keto acid dehydrogenase complex, mitochondrial T171R, P11182”, for which the abundance fitness is -0.578 ± 0.058.
Turning to “Lipoamide acyltransferase component of branched-chain alpha-keto acid dehydrogenase complex, mitochondrial T171S, P11182”, the abundance fitness was -0.267 ± 0.075.
As for “Lipoamide acyltransferase component of branched-chain alpha-keto acid dehydrogenase complex, mitochondrial T171V, P11182”, the abundance fitness worked out at 0.019 ± 0.057.
The value for “Lipoamide acyltransferase component of branched-chain alpha-keto acid dehydrogenase complex, mitochondrial T171W, P11182” was -0.49 ± 0.075; that for “Lipoamide acyltransferase component of branched-chain alpha-keto acid dehydrogenase complex, mitochondrial T171Y, P11182” was -0.022 ± 0.062.
Under “Lipoamide acyltransferase component of branched-chain alpha-keto acid dehydrogenase complex, mitochondrial T174A, P11182” stands -0.347 ± 0.066.
Consider “Lipoamide acyltransferase component of branched-chain alpha-keto acid dehydrogenase complex, mitochondrial T174C, P11182”, for which the abundance fitness was -0.141 ± 0.081.
The value for “Lipoamide acyltransferase component of branched-chain alpha-keto acid dehydrogenase complex, mitochondrial T174D, P11182” was 0.003 ± 0.058; that for “Lipoamide acyltransferase component of branched-chain alpha-keto acid dehydrogenase complex, mitochondrial T174E, P11182” was -0.389 ± 0.053; that for “Lipoamide acyltransferase component of branched-chain alpha-keto acid dehydrogenase complex, mitochondrial T174F, P11182” was -0.403 ± 0.075.
“Lipoamide acyltransferase component of branched-chain alpha-keto acid dehydrogenase complex, mitochondrial T174G, P11182” came in with an abundance fitness of -0.39 ± 0.038.
Substance “Lipoamide acyltransferase component of branched-chain alpha-keto acid dehydrogenase complex, mitochondrial T174H, P11182” came in with an abundance fitness of -0.206 ± 0.069.
Under “Lipoamide acyltransferase component of branched-chain alpha-keto acid dehydrogenase complex, mitochondrial T174I, P11182” stands -0.601 ± 0.11; under “Lipoamide acyltransferase component of branched-chain alpha-keto acid dehydrogenase complex, mitochondrial T174K, P11182”, -0.379 ± 0.063.
In turn, “Lipoamide acyltransferase component of branched-chain alpha-keto acid dehydrogenase complex, mitochondrial T174L, P11182” came in with an abundance fitness of -0.724 ± 0.059.
Substance “Lipoamide acyltransferase component of branched-chain alpha-keto acid dehydrogenase complex, mitochondrial T174M, P11182” displayed an abundance fitness of -0.643 ± 0.084.
Substance “Lipoamide acyltransferase component of branched-chain alpha-keto acid dehydrogenase complex, mitochondrial T174N, P11182” yielded an abundance fitness of -0.064 ± 0.13.
The value for “Lipoamide acyltransferase component of branched-chain alpha-keto acid dehydrogenase complex, mitochondrial T174V, P11182” was -0.773 ± 0.052.
In turn, “Lipoamide acyltransferase component of branched-chain alpha-keto acid dehydrogenase complex, mitochondrial T174W, P11182” came in with an abundance fitness of -0.787 ± 0.045.
As to “Lipoamide acyltransferase component of branched-chain alpha-keto acid dehydrogenase complex, mitochondrial T213C, P11182”, the abundance fitness is -0.179 ± 0.074.
The value for “Lipoamide acyltransferase component of branched-chain alpha-keto acid dehydrogenase complex, mitochondrial T213D, P11182” was 0.049 ± 0.058; that for “Lipoamide acyltransferase component of branched-chain alpha-keto acid dehydrogenase complex, mitochondrial T213F, P11182” was -0.222 ± 0.069; that for “Lipoamide acyltransferase component of branched-chain alpha-keto acid dehydrogenase complex, mitochondrial T213G, P11182” was 0.093 ± 0.036.
Under “Lipoamide acyltransferase component of branched-chain alpha-keto acid dehydrogenase complex, mitochondrial T213H, P11182” stands -0.062 ± 0.058.
The value for “Lipoamide acyltransferase component of branched-chain alpha-keto acid dehydrogenase complex, mitochondrial T213K, P11182” was 0.145 ± 0.071; that for “Lipoamide acyltransferase component of branched-chain alpha-keto acid dehydrogenase complex, mitochondrial T213L, P11182” was -0.185 ± 0.056; that for “Lipoamide acyltransferase component of branched-chain alpha-keto acid dehydrogenase complex, mitochondrial T213M, P11182” was -0.122 ± 0.097.
“Lipoamide acyltransferase component of branched-chain alpha-keto acid dehydrogenase complex, mitochondrial T213P, P11182” registered an abundance fitness of -0.075 ± 0.065.
The substance “Lipoamide acyltransferase component of branched-chain alpha-keto acid dehydrogenase complex, mitochondrial T213Q, P11182” had an abundance fitness of 0.005 ± 0.047.
Consider “Lipoamide acyltransferase component of branched-chain alpha-keto acid dehydrogenase complex, mitochondrial T213R, P11182”, for which the abundance fitness stood at 0.066 ± 0.045.
The value for “Lipoamide acyltransferase component of branched-chain alpha-keto acid dehydrogenase complex, mitochondrial T213S, P11182” was -0.008 ± 0.046; that for “Lipoamide acyltransferase component of branched-chain alpha-keto acid dehydrogenase complex, mitochondrial T213V, P11182” was -0.028 ± 0.048; that for “Lipoamide acyltransferase component of branched-chain alpha-keto acid dehydrogenase complex, mitochondrial T213W, P11182” was -0.247 ± 0.053.
Substance “Lipoamide acyltransferase component of branched-chain alpha-keto acid dehydrogenase complex, mitochondrial T213Y, P11182” had an abundance fitness of -0.386 ± 0.15.
“Lipoamide acyltransferase component of branched-chain alpha-keto acid dehydrogenase complex, mitochondrial V177A, P11182” came in with an abundance fitness of 0.038 ± 0.04.
The value for “Lipoamide acyltransferase component of branched-chain alpha-keto acid dehydrogenase complex, mitochondrial V177D, P11182” was -0.417 ± 0.073.
